For series [1], the target named is T1, VboTA (Variovorax boronicumulans ω-transaminase) (Variovorax boronicumulans, UniProt Z9A1T7NCF1).
T1 construct: full length, 433 aa, C-terminal His-tag (pET21b, NdeI/XhoI), codon-optimised, E. coli BL21(DE3), Ni-NTA
The series is described as follows: activity at varied substrate concentration. In kind it is biochemical. Particulars: substrate inhibition; pH 9, 30 °C.

The next series has as its system CC(C)C(N)CC(=O)O. Briefly: purified protein. As to conditions: 5.2 mM 2-oxoglutarate, 0.1 mM PLP, 100 mM potassium borate pH 9, 30 °C, donor 2-10 mM.
For another series, the system named is CC(N)CC(=O)O. Briefly: purified protein. As to conditions: 5.2 mM 2-oxoglutarate, 0.1 mM PLP, 100 mM potassium borate pH 9, 30 °C, donor 2-10 mM.
A further series deals with NC(CC(=O)O)Cc1ccccc1. The series is described as follows: purified protein. Particulars: 5.2 mM 2-oxoglutarate, 0.1 mM PLP, 100 mM potassium borate pH 9, 30 °C, donor 2-10 mM.
For the next series, the system named is NC(CC(=O)O)c1ccccc1. Briefly: purified protein. Particulars: 5.2 mM 2-oxoglutarate, 0.1 mM PLP, 100 mM potassium borate pH 9, 30 °C, donor 2-10 mM, Km above tested range.
The test system of the next series is O=C(O)CCC(=O)C(=O)O. The series is described as follows: purified protein. As to conditions: 10 mM β-phenylalanine, 0.1 mM PLP, 100 mM potassium borate pH 9, 30 °C, 2-8 mM 2-oxoglutarate.

For orientation: Km means the concentration of substrate that gives half-maximal velocity. The Vmax is the rate approached at saturating substrate. Broadly, the kcat is the number of substrate molecules converted per active site and unit of time at saturation. As usually defined, the kcat/Km is the turnover number divided by the Michaelis constant.

T1 sequence (Z9A1T7NCF1 1-433): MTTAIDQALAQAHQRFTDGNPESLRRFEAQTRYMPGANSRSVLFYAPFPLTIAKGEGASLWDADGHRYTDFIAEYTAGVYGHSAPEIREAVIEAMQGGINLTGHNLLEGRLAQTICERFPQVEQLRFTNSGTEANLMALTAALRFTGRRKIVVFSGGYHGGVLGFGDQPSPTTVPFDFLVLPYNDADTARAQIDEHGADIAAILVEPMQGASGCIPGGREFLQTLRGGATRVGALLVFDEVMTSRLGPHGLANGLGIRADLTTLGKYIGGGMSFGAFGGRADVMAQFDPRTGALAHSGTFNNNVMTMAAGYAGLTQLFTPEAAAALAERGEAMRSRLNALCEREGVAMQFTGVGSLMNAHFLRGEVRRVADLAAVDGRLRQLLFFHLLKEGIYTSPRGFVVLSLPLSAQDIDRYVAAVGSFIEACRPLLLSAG
Text for CC(C)C(N)CC(=O)O: (§1) glutamate quantification, Lineweaver-Burk on VboTA (Variovorax boronicumulans ω-transaminase)
Text for CC(N)CC(=O)O: as §1
Text for NC(CC(=O)O)Cc1ccccc1: as §1
Text for NC(CC(=O)O)c1ccccc1: as §1
Text for O=C(O)CCC(=O)C(=O)O: as §1

In the case of `O=C(O)CCC(=O)C(=O)O` [2-Oxoglutaric acid], the “loss of activity at 20 mM” value in series [1] is on record as ~ 70%.
Turning to “VboTA (Variovorax boronicumulans ω-transaminase) (Variovorax boronicumulans)”, the Km was 44.7 ± 1.2 mM with CC(C)C(N)CC(=O)O; 4.4 ± 0.3 mM in the series with CC(N)CC(=O)O; 0.7 ± 0.2 mM in the series on NC(CC(=O)O)Cc1ccccc1; 24.7 ± 3.8 mM with NC(CC(=O)O)c1ccccc1; 2.1 ± 0.4 mM in the series with O=C(O)CCC(=O)C(=O)O. In addition, the Vmax in the series with CC(C)C(N)CC(=O)O came out at 48.5 µmol/min; in the series with CC(N)CC(=O)O, 1.4 µmol/min; with NC(CC(=O)O)Cc1ccccc1, 1.1 µmol/min; with NC(CC(=O)O)c1ccccc1, 20.5 µmol/min; with O=C(O)CCC(=O)C(=O)O, 24.9 µmol/min. Moreover, the kcat was found to be 66.5 ± 7.1 s⁻¹ with CC(C)C(N)CC(=O)O; 2 ± 0.2 s⁻¹ in the series on CC(N)CC(=O)O; 1.6 ± 0.07 s⁻¹ in the series with NC(CC(=O)O)Cc1ccccc1; 28.1 ± 3.3 s⁻¹ in the series with NC(CC(=O)O)c1ccccc1; 34.2 ± 2.7 s⁻¹ in the series with O=C(O)CCC(=O)C(=O)O. Besides, the kcat/Km in the series with CC(C)C(N)CC(=O)O was found to be 1500 ± 200 M⁻¹ s⁻¹; with CC(N)CC(=O)O, 450 ± 50 M⁻¹ s⁻¹; in the series on NC(CC(=O)O)Cc1ccccc1 it was 2200 ± 100 M⁻¹ s⁻¹; in the series on NC(CC(=O)O)c1ccccc1, 1100 ± 100 M⁻¹ s⁻¹; with O=C(O)CCC(=O)C(=O)O it was 16200 ± 1300 M⁻¹ s⁻¹.

The values are drawn from PMC9850050, “A transaminase with β-activity from Variovorax boronicumulans for the production of enantiopure β-amino acids” (Heliyon, 2022).
